The results in this text go back to patent US20160297892A1 (Novo Nordisk, published 2016).

Assay [1] addresses T1, EGF1-4 domains of human Protein S with C-terminal HPC4 tag (human, UniProt P07225 114-286, partial hydroxylation of Asn or Asp in the EGF domains (detected by MS)).
T1 construct: also called hEGF1-4; human Protein S EGF1-4
T1 sequence: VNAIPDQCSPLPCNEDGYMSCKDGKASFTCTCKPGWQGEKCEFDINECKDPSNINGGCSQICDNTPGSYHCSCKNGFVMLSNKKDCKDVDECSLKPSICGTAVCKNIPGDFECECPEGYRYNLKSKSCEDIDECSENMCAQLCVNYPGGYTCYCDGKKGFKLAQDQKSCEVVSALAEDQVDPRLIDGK
The assay is described as follows: HX-MS, 4 uM EGF1-4 with 2.4 uM mAb.
Description: The HX experiments were performed on a nanoACQUITY UPLC System with HDX Technology (Waters Inc.) coupled to a Synapt G2 mass spectrometer (Waters Inc.). The Waters HDX system contained a Leap robot (H/D-x PAL; Waters Inc.) operated by the LeapShell software (Leap Technologies Inc/Waters Inc.), which performed initiation of the deuterium exchange reaction, reaction time control, quench reaction, injection onto the UPLC system and digestion time control. The Leap robot was equipped with two temperature controlled stacks maintained at 20° C. for buffer storage and HX reactions and maintained at 2° C. for storage of protein and quench solution, respectively. The Waters HDX system furthermore contained a temperature controlled chamber holding the pre- and analytical columns, and the LC tubing and switching valves at 0.5° C. A separately temperature controlled chamber holds the pepsin column at 25° C. […] The resulting peptides were trapped and desalted on a VanGuard pre-column BEH C18 1.7 μm (2.1×5 mm (Waters Inc.)). Subsequently, the valves were switched to place the pre-column inline with the analytical column, UPLC-BEH C18 1.7 μm (1×100 mm (Waters Inc.)), and the peptides separated using a 9 min gradient of 10-50% B delivered at 40 μl/min from the nanoAQUITY UPLC system (Waters Inc.). The mobile phases consisted of A: 0.1% formic acid and B: 0.1% formic acid in CH₃CN. […]

The target in assay [2] is T2, human Protein S (plasma derived) (human, UniProt P07225 42-676).
T2 construct: Bought plasma-derived human Protein S (Haematologic Technologies or Enzyme Research Laboratories); also called Plasma PS; free Protein S
T2 sequence: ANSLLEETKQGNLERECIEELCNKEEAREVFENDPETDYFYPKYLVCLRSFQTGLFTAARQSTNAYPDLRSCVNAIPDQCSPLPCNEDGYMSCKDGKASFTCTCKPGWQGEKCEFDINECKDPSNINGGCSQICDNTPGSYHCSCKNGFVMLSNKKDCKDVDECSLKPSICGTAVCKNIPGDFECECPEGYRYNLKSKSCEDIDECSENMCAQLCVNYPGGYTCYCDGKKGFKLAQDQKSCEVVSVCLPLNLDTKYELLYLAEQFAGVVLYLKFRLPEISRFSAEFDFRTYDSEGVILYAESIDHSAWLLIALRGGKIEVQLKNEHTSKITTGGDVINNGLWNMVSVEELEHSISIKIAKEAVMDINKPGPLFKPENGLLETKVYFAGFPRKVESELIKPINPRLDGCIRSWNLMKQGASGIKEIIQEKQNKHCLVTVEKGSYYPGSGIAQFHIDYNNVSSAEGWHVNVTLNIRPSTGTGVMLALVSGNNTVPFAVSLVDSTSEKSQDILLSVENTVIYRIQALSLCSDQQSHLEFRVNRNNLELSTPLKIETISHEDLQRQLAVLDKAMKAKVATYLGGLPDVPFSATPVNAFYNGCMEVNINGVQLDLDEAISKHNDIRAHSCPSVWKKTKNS
In words: SPR (Biacore 3000), Protein S captured on phosphatidylserine vesicles on L1 chip, mAb 250 nM. (In SPR one partner is held on a chip, and binding of the other changes the refractive index at the surface.)

Assay [3] addresses T2, human Protein S (plasma derived). In words: ELISA, calcium-free TBS. (An ELISA detects its analyte on a solid surface through an enzyme-linked reagent.)
Description: (§1) After incubation and washing a HRP-labelled goat-anti-mouse IgG secondary antibody (Jackson) was added and the ELISA was developed after incubation and wash by addition of 3,3′,5,5′-Tetramethylbenzidine.
Assay [4] concerns the target T1, EGF1-4 domains of human Protein S with …. The assay is described as follows: ELISA, calcium-free TBS.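 Note: binding of mouse antibodies detected by ELISA with an HRP-conjugated goat anti-mouse IgG secondary and TMB substrate development.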
Description: as §1
The target of assay [5] is T3, Gla-domain deleted recombinant human Protein S (human, UniProt P07225 114-676).
T3 construct: also called hPS-dGla; desGla human Protein S
T3 sequence: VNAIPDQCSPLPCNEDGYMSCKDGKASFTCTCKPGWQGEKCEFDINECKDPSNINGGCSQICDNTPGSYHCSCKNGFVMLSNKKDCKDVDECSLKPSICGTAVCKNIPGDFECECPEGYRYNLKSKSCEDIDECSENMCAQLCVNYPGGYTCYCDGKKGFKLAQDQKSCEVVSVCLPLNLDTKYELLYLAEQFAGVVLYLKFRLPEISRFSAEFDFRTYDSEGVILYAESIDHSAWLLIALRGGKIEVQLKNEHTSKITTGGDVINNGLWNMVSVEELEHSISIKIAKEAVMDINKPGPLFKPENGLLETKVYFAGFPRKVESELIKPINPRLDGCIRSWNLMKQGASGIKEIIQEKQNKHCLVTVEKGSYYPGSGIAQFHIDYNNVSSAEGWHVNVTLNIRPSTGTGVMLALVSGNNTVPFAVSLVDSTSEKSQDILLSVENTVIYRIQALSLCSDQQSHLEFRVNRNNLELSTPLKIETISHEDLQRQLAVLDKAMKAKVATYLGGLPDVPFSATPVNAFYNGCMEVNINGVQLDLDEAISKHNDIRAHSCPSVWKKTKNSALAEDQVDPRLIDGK
In words: ELISA, calcium-free TBS.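 Note: binding of mouse antibodies detected by ELISA with an HRP-conjugated goat anti-mouse IgG secondary and TMB substrate development.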
Description: as §1

In assay [6] the target is T4, EGF domain 3 and 4 of recombinant human Protein S (human, UniProt P07225 201-286, limits assumed).
T4 construct: domain: EGF domain 3 and 4; also called hEGF3-4
T4 sequence (looked up): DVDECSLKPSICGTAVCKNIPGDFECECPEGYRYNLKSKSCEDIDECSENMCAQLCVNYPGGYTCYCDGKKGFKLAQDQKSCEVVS
The assay is described as follows: ELISA, recombinant antibody.

Assay [7] deals with T5, EGF domain 1 and 2 of recombinant human Protein S (human, UniProt P07225 114-200, limits assumed).
T5 construct: domain: EGF domain 1 and 2; also called hEGF1-2
T5 sequence (looked up): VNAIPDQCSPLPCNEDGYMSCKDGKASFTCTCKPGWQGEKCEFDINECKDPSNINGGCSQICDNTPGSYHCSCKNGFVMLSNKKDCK
In words: ELISA, calcium-free TBS.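 Note: binding of mouse antibodies detected by ELISA with an HRP-conjugated goat anti-mouse IgG secondary and TMB substrate development.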
Description: as §1

The target in assay [8] is T2, human Protein S (plasma derived). In words: ELISA, recombinant antibody.
The target in assay [9] is T1, EGF1-4 domains of human Protein S with …. The assay is described as follows: ELISA, recombinant antibody.
Assay [10] deals with T3, Gla-domain deleted recombinant human …. The assay is described as follows: ELISA, recombinant antibody.
The target in assay [11] is T4, EGF domain 3 and 4 of recombinant human …. The assay is described as follows: ELISA, calcium-free TBS.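 Note: binding of mouse antibodies detected by ELISA with an HRP-conjugated goat anti-mouse IgG secondary and TMB substrate development.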
Description: as §1

B1: 0322-0000-0114 (antibody, V domains shown)
VH: EVKLEESGGGLVQPGGSMKLSCAASGFTFSDAWMDWVRQSPEKGLEWVAEIRSKANNHATYYAESVKGRFTISRDDSKSGVYLQMNSLRPEDTGIYYCTLTTAFLFDYWGQGTTLTVSS
VL: QIALTQSPAIMSASPGEKVTMTCSVSSSVSYMHWYQQKPGSSPRLWIYDTSNLVSGVPGRFSGSGSGTSYSLTLSSMEAEDAATYYCQQYSGYLYTFGGGTKLEIKR
notes: also called murine-human chimeric antibody of 2F4A1
In the case of B1, the binding result in assay [1] and in assay [2] was “binds” each time.

B2: M-hProtS-2F4A1 monoclonal antibody (antibody, V domains shown)
VH: B1 VH
VL: B1 VL
notes: Mouse IgG1, kappa
For the molecule B2, the binding result is given as “binds” in [3], “binds” in assay [4], “binds” in [5] and “no binding” in assay [6].

B3: M-hProtS-6F170A2 monoclonal antibody (antibody, V domains shown)
VH: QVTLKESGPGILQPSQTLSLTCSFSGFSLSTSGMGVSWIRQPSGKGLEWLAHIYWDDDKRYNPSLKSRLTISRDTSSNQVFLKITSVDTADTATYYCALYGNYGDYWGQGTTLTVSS
VL: QIVLTQSPAIMSASPGEKVTMTCSASSSVSYMYWYQQKPGSSPRILIYDTSNLASGVPVRFSGSGSGTSYSLTISRMEAEDAATYYCQQWSSYPLTFGAGTKLELKR
notes: Mouse IgG1, kappa
Regarding B3, the binding result in assay [7] was “no binding”; in assay [8], “binds”; in assay [9] it was “binds”; in assay [10], “binds”.

B4: M-hProtS-6F138A3 monoclonal antibody (antibody, V domains shown)
VH: QVHLKESGPGLVAPSQNLSITCTVSGFSLTGYGVSWVRQPPGKGLEWLGMIWGDGTTDYNSTLKSRLSISKDNSKSQVFLKMNSLQIDDTARYYCARDPGAMDYWGQGTSVTVSS
VL: QIVLTQSPAIMSASPGEKVTITCSATSSVTYMHWFQQKPGTSPKLWIFSTSNLASGVPPRFSGSGSGTSYSLTISRMEAEDAATYYCQQRSSYPPTFGGGTKLEIKR
notes: Mouse IgG1, kappa; also called 6F138A1/A3
For B4, the binding result in assay [11] is given as “no binding”; in assay [8], “binds”; in [9], “binds”; in assay [10] it was “binds”.

B5: M-hProtS-3F2A1 monoclonal antibody (antibody, V domains shown)
VH: EVQLQESGPSLVKPSQTLSLTCSVTGDSITSGYWNWIRKFPGNKLEYMGYISFSGSTYYNPSLKSRISITRDTSKNQYYLQLNSVTTEDTATYYCAREFAYWGQGTLVTVSA
VL: DIVLTQSPATLSVTPGDSVSLSCRASQSISNNLHWYQQKSHESPRLLIKFVSQSISGIPSRFSGSGSGTDFTLSINSVETEDFGMYFCQQSNSWPWTFGGGTKLEIKR
notes: Mouse IgG1, kappa
As to B5, the binding result was “binds” in assay [3], “binds” in assay [4], “binds” in [5] and “no binding” in [6].

B6: M-hProtS-2F82A1 monoclonal antibody (antibody, V domains shown)
VH: QVQLQQPGTELVRPGASVKLSCKASGYTFTSYWMNWVQQRPEQGLEWIGRIDPYDTETHYNQKFEDKAILTVDKSSSTAYMQLSSLTSEDSAVYYCARWAGSSYAMDYWGQGTSVTVSS
VL: QIVLTQSPALMSASPGERVTMTCSASSSVSYMYWYQQKPRSSPKPWIYSTSNLASGVPARFSGSGSGTSYSLTISSMEAEDAATYYCQQWSSNPYTFGGGTKLEIKR
notes: Mouse IgG1, kappa; also called mAb 0017
On to B6, for which the binding result in assay [3] is listed as “binds”; in assay [4], “binds”; in [5], “binds”; in assay [6], “no binding”.
